Here are results for two molecules from patent publication US11471538B2, “Methods and pharmaceutical compositions for the treatment of cancers associated with activation of the MAPK pathway” (INSERM (Institut National de la Santé et de la Recherche …, priority 2017, dated 2022).

One experiment has as its system SLITRK6 mRNA. The experiment is described as follows: SLITRK6 mRNA expression by Q-PCR in BRAF-mutant melanoma cells under MAPK inhibitor treatment. The format is cell-based. The conditions noted are these: PLX4032 1 μM alone or with AZD6244 0.1 μM; A375, Lu1205, WM266-4, WM983B, WM35, WM115 cells; 72 h for WM35 and WM115. As to the method: FIG. 1. SLITRK6 mRNA expression is induced under MAPK inhibitor treatment in BRAF-mutant melanoma cells. A) A375, Lu1205, WM266-4 and WM983B cell lines were treated with a BRAF inhibitor (PLX4032) at 1 μM alone or in combination with a 0.1 μM MEK inhibitor (AZD6244). mRNA fold increase relative to the DMSO control is determined by Q-PCR. The results are presented as the mean±SD of the average of 3 independent experiments. *** p<0.001; T-test. B) BRAF-mutant melanoma cells lines WM35 and WM115 were treated with a BRAF inhibitor (PLX4032, 1 μM) alone or in combination with a MEK inhibitor (AZD6244, 0.1 μM) for 72 h and SLITRK6 mRNA was analyzed by RT-qPCR. Data shown are the means±standard deviation of 3 independent experiments. ** p<0.01; * p<0.05; t-test.

The subject of experiment [1] is SLITRK6. Briefly: Staining of A375 cells for SLITRK6: antibody binding at the membrane. The conditions noted are these: si-Ctl or si-SLITRK6, PLX4032 1 μM alone or with AZD6244 0.1 μM for 48 h. As for the experimental part:
FIG. 5. […] A375 cells were transfected with siRNA control (si-Ctl) or targeting SLITRK6 (si-SLITRK6) before treatment with PLX4032 (1 μM) alone or in combination with AZD6244 (0.1 μM) for 48 h. Cells were then stained for SLITRK6 (green) and DNA was counterstained with DAPI (blue).

For experiment [2], the system named is SLITRK6. The experiment is described as follows: Staining of A375 cells for SLITRK6: antibody internalization. The format is cell-based. The conditions noted are these: si-Ctl or si-SLITRK6, PLX4032 1 μM alone or with AZD6244 0.1 μM for 48 h. As for the experimental part: FIG. 6. […] A375 cells were transfected with siRNA control (si-Ctl) or targeting SLITRK6 (si-SLITRK6) before treatment with PLX4032 (1 μM) alone or in combination with AZD6244 (0.1 μM) for 48 h. Cells were then stained for SLITRK6 (green) and DNA was counterstained with DAPI (blue).

The mark [3] stands for this setting: listed as antibody against SLITRK6.

Consider `CCCS(=O)(=O)Nc1ccc(F)c(C(=O)c2c[nH]c3ncc(-c4ccc(Cl)cc4)cc23)c1F` [PLX4032], for which the “SLITRK6 mRNA expression (fold increase relative to the DMSO control)” value in the experiment with SLITRK6 mRNA was “induced”.

B1: Hal5-10acl2: antibody directed against SLITRK6, produced by CHO cell ATCC PTA-13102; VH SEQ ID NO: 1, VL SEQ ID NO: 2 (antibody, V domains shown)
VH: QVQLVESGGGVVQPGRSLRLSCAASGFTFSSYGMHWVRQAPGKGLEWVAVIWYDGSNQYYADSVKGRFTISRDNSKNTLFLQMHSLRAEDTAVYYCARGLTSGRYGMDVWGQGTTVTVSS
VL: DIVMTQSPLSLPVTPGEPASISCRSSQSLLLSHGFNYLDWYLQKPGQSPQLLIYLGSSRASGVPDRFSGSGSGTDFTLKISRVEAEDVGLYYCMQPLQIPWTFGQGTKVEIKR
modifications: Synthetic heavy chain variable region of Hal5-10acl2; Synthetic light chain variable region of Hal5-10acl2
With B1, the entries for the “binding of the antibody to SLITRK6 at the cell membrane” value in the experiment on SLITRK6 [1] and in the experiment on SLITRK6 [1] (setting [3]) were “binds to melanoma cells only when the cells are treated with a MAMPK inhibitor” and “binds its target specifically at the membrane only after MAPK inhibitor treatment”, respectively. Besides, the “internalization of the antibody and its target” value in the experiment on SLITRK6 [2] is “internalizes the tumor cells only after a treatment with a MAPK inhibitor”; in the experiment on SLITRK6 [2] (setting [3]), “internalizes its target specifically only after MAPKi treatment”.
